This note sets out measurements from patent US20090018316A1 (IMMUNEX, published 2009).

Assay [1] concerns the target T1, murine IL-15R (full length, cDNA clone D1-4-D5) (murine, UniProt Q60819 33-263).
T1 construct: Cell-surface receptor: recombinant on COS-7 and 32D transfectants, native or endogenous on D10, 32D-01, 32Dmβ-5 and CTLL.2 cells; 32D lines also carry IL-2Rα and γc, and some carry IL-2Rβ; the cell line is named under assay; also called murine IL-15Rα; IL-15Rα
T1 sequence: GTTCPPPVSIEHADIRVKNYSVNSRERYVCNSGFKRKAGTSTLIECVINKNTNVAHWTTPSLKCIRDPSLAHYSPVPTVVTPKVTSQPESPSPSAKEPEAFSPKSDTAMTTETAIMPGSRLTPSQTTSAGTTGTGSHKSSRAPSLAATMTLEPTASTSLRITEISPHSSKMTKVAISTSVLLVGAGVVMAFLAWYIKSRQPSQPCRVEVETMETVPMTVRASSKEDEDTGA
Briefly: equilibrium binding of 125I-simian IL-15 to parental 32D-01 cells (endogenous IL-15Rα).

In assay [2] the target is T2, native human IL-15 receptor on human cells (human, UniProt Q13261 31-267).
T2 construct: whole, on cells; Endogenous receptor; its subunits on these cells were not defined; Clone W5 was later cloned from W126-VA4 cells, and clones A212 and A133 from A172 cells
T2 sequence (Q13261 31-267): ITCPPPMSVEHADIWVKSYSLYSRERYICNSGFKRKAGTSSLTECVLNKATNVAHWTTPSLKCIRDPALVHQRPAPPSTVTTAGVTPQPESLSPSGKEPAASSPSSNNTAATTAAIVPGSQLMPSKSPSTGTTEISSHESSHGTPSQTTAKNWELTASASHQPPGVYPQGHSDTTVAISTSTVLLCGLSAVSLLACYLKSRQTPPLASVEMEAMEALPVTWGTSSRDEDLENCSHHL
Briefly: radiolabeled IL-15 binding to the human fibroblast line W126-VA4. An excerpt: (§1) Various human cell lines and tissues were screened for the ability to bind radiolabeled IL-15 substantially as described in Example 1. High affinity binding was observed on activated peripheral blood mononuclear cells, activated monocytes and some EBV-transformed cell lines.

For assay [3], the target named is T1, murine IL-15R (full length, cDNA clone …). The experiment in a line: 125I-IL-15 binding to monolayers of COS cells transfected with clone D1-4-D5. How it is done: D. Recombinant IL-15R Binding. Plasmid DNA from IL-15 receptor expression plasmid was used to transfect a sub-confluent layer of monkey COS-7 cells using DEAE-dextran followed by chloroquine treatment, as described by Luthman et al., Nucl Acids Res. 11:1295 (1983) and McCutchan et al., J. Natl. Cancer Inst. 41:351 (1968). The cells were then grown in culture for three days to permit transient expression of the inserted sequences. After three days, the cell monolayers were assayed for ¹²⁵I-IL-15 binding essentially as described by Park, et al., J. Exp. Med. 166:476 (1987). Non-specific binding of ¹²⁵I-IL-15 was measured in the presence of 200-fold or greater excess of unlabeled IL-15.

Assay [4] has as its target T2, native human IL-15 receptor on human …. The experiment in a line: radiolabeled IL-15 binding to the glioblastoma cell line A-172.
Text: as §1

The target in assay [5] is T1, murine IL-15R (full length, cDNA clone …). The experiment in a line: equilibrium binding of 125I-simian IL-15 to D10 cells (native IL-15R).
For assay [6] the target is unchanged. The experiment in a line: equilibrium binding of 125I-simian IL-15 to 32Dmβ-5 cells (sites ascribed to endogenous IL-15Rα).
For assay [7] the target is unchanged. Briefly: equilibrium binding of 125I-simian IL-15 to 32Dmβm15Rα-3 cells (recombinant IL-15Rα and IL-2Rβ, γc constitutive).
Assay [8] addresses T2, native human IL-15 receptor on human …. Briefly: radiolabeled IL-15 binding to vascular endothelial cells of arterial origin.
Text: as §1

The target of assay [9] is T1, murine IL-15R (full length, cDNA clone …). The experiment in a line: equilibrium binding of 125I-simian IL-15 to 32Dm15Rα-102 cells (transfected with IL-15Rα).
Assay [10] addresses T2, native human IL-15 receptor on human …. The experiment in a line: radiolabeled IL-15 binding to vascular endothelial cells of venous origin.
Text: as §1

In assay [11] the target is T3, complexes of murine β and γc (IL-2Rβ and common γ chain) in the absence of the IL-15Rα chain (murine, UniProt P16297 27-539; P34902 23-369).
T3 construct: whole, on cells; On 32Dmβ-5 cells, which also express IL-2Rα and about 40 sites per cell of endogenous IL-15Rα; also called murine IL-2Rβ/γc; 32Dmβ-5 cells
T3 sequence (looked up) 1: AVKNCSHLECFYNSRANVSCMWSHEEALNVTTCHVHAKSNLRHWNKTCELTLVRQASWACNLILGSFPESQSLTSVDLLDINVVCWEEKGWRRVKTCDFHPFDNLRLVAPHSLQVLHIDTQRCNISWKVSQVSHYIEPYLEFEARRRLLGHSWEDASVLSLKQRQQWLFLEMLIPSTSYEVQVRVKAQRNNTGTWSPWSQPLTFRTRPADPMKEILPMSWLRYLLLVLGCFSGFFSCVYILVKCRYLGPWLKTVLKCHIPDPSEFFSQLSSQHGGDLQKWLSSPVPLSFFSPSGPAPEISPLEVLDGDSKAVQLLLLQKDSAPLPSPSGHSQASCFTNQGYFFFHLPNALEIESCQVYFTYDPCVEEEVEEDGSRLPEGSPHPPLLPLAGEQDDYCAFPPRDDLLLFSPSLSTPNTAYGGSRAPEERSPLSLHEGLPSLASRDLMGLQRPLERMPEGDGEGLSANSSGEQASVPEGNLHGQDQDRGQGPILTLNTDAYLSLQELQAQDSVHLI
T3 sequence (looked up) 2: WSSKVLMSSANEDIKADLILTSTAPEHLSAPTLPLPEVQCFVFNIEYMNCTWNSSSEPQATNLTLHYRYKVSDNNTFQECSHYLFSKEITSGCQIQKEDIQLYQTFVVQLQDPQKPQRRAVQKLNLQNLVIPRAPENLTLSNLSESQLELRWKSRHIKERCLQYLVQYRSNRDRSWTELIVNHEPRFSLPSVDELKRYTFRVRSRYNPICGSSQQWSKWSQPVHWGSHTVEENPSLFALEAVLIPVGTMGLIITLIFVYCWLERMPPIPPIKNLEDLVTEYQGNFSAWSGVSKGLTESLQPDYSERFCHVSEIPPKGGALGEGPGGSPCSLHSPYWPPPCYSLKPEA
The experiment in a line: equilibrium binding of 125I-simian IL-15 to 32Dmβ-5 cells: no IL-15 binding sites beyond those of the 32D-01 parent line.

B1: Recombinant flag simian IL-15 expressed in yeast (ligand)
chain: DYKDDDDKNWVNVISDLKKIEDLIQSMHIDATLYTESDVHPSCKVTAMKCFLLELQVISHESGDTDIHDTVENLIILANNILSSNGNITESGCKECEELEEKNIKEFLQSFVHIVQMFINTS
modifications: radioiodinated (125I, enzymobead iodination reagent); labelled residues not stated
notes: Flag-tagged simian IL-15 made in yeast, purified and radioiodinated; also called 125I-IL-15; 125I-simian IL-15
In general, Kd refers to a measure of binding affinity in units of concentration. Lower therefore signals higher affinity. Turning to B1, the Ka in assay [1] worked out at 1.4e+11 M⁻¹; in [5] it was 1.3e+11 M⁻¹; in [6], 1.9e+11 M⁻¹; in [7], 2.2e+11 M⁻¹; in assay [9], 1.5e+11 M⁻¹. The dissociation constant Kd was 0.027 nM in assay [2]; 1 to 2.2 nM in assay [3]; 0.05 to 0.138 nM in assay [4]; 0.163 nM in assay [8]; 0.033 nM in assay [10]. Moreover, the binding result in assay [11] is reported as “no binding”.
